Read-outs that look alike come from different tables or passages of the source. *1 amine or outer side, *2 acyl side, *3 side chain or, on linkers, in order; H or OH if unused. Where no end group is shown, it is not given here. Side-chain parts run from the residue outwards. [ ]: non-standard residue; d: D form. The star is where a group is joined. Undecanoyl(11-OPh(4-COOH)) = O=C(O)c1ccc(OCCCCCCCCCCC(=O)*)cc1; Decanoyl(10-O(3-COOH-Ph)) = O=C(O)c1cccc(OCCCCCCCCCC(=O)*)c1; γGlu = O=C(O)[C@H](CCC(=O)[*:2])N[*:1]; C14 diacid = O=C(O)CCCCCCCCCCCCC(=O)*; AEEA = NCCOCCOCC(=O)O; Aib = CC(C)(N)C(=O)O
Experiments:
human GLP-1 receptor [1] = target: T1, human GLP-1 receptor (Homo sapiens, UniProt P43220); assay: In vitro potency, CRE luciferase reporter gene assay in BHK cells expressing the human GLP-1 receptor; format: cell-based; settings: average of duplicates;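 also: firefly luciferase luminescence read after 3 h incubation at 37 °C, compounds tested in an eight-point series from 0.01 pM to 100 nM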
T1 construct: expressed in transfected cells; host or cells: membranes from BHK cells, parent line BHKTS13, clone FCW467-12A
Target sequence in this assay (P43220 24-463): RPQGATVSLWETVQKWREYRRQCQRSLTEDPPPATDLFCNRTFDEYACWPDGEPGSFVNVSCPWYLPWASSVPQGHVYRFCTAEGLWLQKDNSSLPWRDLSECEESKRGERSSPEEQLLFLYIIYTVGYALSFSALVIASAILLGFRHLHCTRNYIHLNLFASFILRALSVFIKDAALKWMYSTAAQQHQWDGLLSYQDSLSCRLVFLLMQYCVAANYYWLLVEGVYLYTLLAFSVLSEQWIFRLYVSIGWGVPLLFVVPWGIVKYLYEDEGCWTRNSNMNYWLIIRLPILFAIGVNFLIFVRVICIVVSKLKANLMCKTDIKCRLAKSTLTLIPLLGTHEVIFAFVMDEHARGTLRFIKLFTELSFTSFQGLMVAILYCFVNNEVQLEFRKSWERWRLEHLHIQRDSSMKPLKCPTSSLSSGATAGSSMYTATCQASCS
Experimental: The in vitro potency is the measure of human GLP-1 receptor activation in a whole cell assay.
In vitro potency was determined by measuring the response of the human GLP-1 receptor in a reporter gene assay. The assay was performed in a stably transfected BHK cell line that expresses the human GLP-1 receptor and contains the DNA for the cAMP response element (CRE) coupled to a promoter and the gene for firefly luciferase (CRE luciferase). When the human GLP-1 receptor is activated it results in the production of cAMP, which in turn results in the luciferase protein being expressed. When assay incubation is completed the luciferase substrate (luciferin) is added and the enzyme converts luciferin to oxyluciferin to produce bioluminescence. The luminescence is measured as the readout for the assay.
An increase of the in vitro potency, EC50 value, in the presence of serum albumin would indicate an affinity to serum albumin and represents a method to predict a protracted pharmacokinetic profile of the test substance in animal models.
The cells were cultured at 5% CO2 in Cell Culture Medium. They were aliquoted and stored in liquid nitrogen. Before each assay an aliquot is taken up and washed twice in PBS before being suspended at the desired concentration in the assay specific buffer. For 96-well plates the suspension was made to give a final concentration of 5×10^3 cells/well.
Assay Medium consisted of DMEM w/o phenol red, 10 mM Hepes and 1× Glutamax. The 1% Assay Buffer consisted of 2% ovalbumin, 0.2% Pluronic F-68 and 2% HSA in Assay Medium. The 0% Assay Buffer consisted of 2% ovalbumin and 0.2% Pluronic F-68 in Assay Medium.
1) Cell stocks were thawed in a 37° C. water bath.
2) Cells were washed three times in PBS.
3) The cells were counted and adjusted to 5×10^3 cells/50 μl (1×10^5 cells/ml) in Assay Medium. A 50 μl aliquot of cells was transferred to each well in the assay plate.
4) Stocks of the test compounds and reference compounds were diluted to a concentration of 0.2 pM in 0% Assay Buffer for the 0% HSA CRE luciferase assay and 1% Assay Buffer for the 1% HSA CRE luciferase assay. […] Compounds were tested at the following final concentrations: 1×10^−7 M, 1×10^−8 M; 1×10^−9 M, 1×10^−10 M, 1×10^−11 M, 1×10^−12 M, 1×10^−13 M, and 1×10^−14 M. 6) The assay plate was incubated for 3 h in a 5% CO2 incubator at 37° C. […] 8) A 100 μl aliquot of steadylite plus reagent was added to each well of the assay plate (reagent was light sensitive). 9) Each assay plate was covered with aluminum foil to protect it from light and shaken for 30 min at room temperature. 10) Each assay plate was read in a Packard TopCount NXT instrument. Calculations and Results
The data from the TopCount instrument were transferred to GraphPad Prism software. The software performs a non-linear regression (log(agonist) vs response).
A minimum of two replicates was measured for each sample on separate assay plates. The reported values are averages of the duplicates. For some examples more than one assay was run and in this case the data reported are the averages of the averaged duplicates.

human GLP-1 receptor [2] = target: T1, human GLP-1 receptor; assay: GLP-1 receptor binding, competitive 125I-GLP-1 SPA binding assay on isolated membranes; settings: low HSA (max. 0.001% final assay concentration)
[3] = Pharmacokinetic study in mini pigs after i.v. administration; format: in vivo; settings: female, Göttingen, pig, plasma, iv, 2 nmol/kg; read-out: Minipig iv PK, t½ (converted)
Experimental: The purpose of this study is to determine the protraction in vivo of the GLP-1 derivatives after i.v. administration to mini pigs, i.e. the prolongation of their time in the body and thereby their time of action. This was done in pharmacokinetic (PK) studies, where the terminal half-life of the derivative in question was determined. By terminal half-life is generally meant the period of time it takes to halve a certain plasma concentration, measured after the initial distribution phase.
Female Göttingen mini pigs obtained from Ellegaard Göttingen Minipigs (Dalmose, Denmark) at approximately 5 months of age and weighing approximately 10 kg were used in the studies. The mini pigs were housed in pens with straw as bedding, four to six together in each pen and fed restrictedly once or twice daily with Altromin 9023 mini pig diet (Chr. Petersen A/S, DK-4100 Ringsted). The pigs were used for repeated pharmacokinetic studies with a suitable wash-out period between successive GLP-1 derivative dosings. An acclimatisation period of 1 week was allowed during which time the mini pigs were trained to be fixated on the back for blood sampling and in slings for i.v. dosing. All handling, dosing and blood sampling of the animals was performed by trained and skilled staff.
The GLP-1 derivatives were dissolved in 50 mM sodium phosphate, 70 mM sodium chloride, 0.05% tween 80, pH 7.4 to a concentration of approximately 20 nmol/ml. Intravenous injections (the volume corresponding to usually 2 nmol/kg, for example 0.1 ml/kg) of the compounds were given as intravenous injections via a Venflon inserted in an ear vein, while the animals were placed un-anaesthetised in a sling. The dose volume was 0.1 ml/kg, and blood was sampled at predefined time points for up till 13 days post dosing (samples were taken with a syringe from a jugular vein). Blood samples (for example 0.8 ml) were collected in EDTA buffer (8 mM) and then centrifuged at 4° C. and 2000 G for 10 minutes.
Individual plasma concentration-time profiles were analysed by a non-compartmental model in WinNonlin v. […] 6.2 or 6.3 (Pharsight Inc., Mountain View, Calif., USA), or other relevant software for PK analysis, and the resulting terminal half-lives determined.

human GLP-1 receptor [4] = target: T2, human GLP-1 receptor (human, UniProt P43220)
Target sequence in this assay (P43220 24-463): as above

human GLP-1 receptor [5] = target: T2, human GLP-1 receptor; assay: displacement of [125I]-GLP-1-(7-36)NH2 from membranes with human GLP-1 receptor, SPA, high HSA (2.0%)
Experimental: (§1) Each derivative is added in a series of concentrations to isolated membranes containing the human GLP-1 receptor and displacement of the labelled ligand is monitored. The receptor binding is reported as the concentration at which half of the labelled ligand is displaced from the receptor, the $IC50$ value.
(§2) For the receptor binding assay in the presence of low HSA (0.001%) 50 μl of the assay buffer was added to each well of an assay plate. […] For the receptor binding assay in the presence of high HSA (2.0%) 50 μl of the 8% albumin stock was added to each well of an assay plate. […] Cell membrane aliquots were thawed and diluted to their working concentration. Fifty μl were added to each well in the assay plate. […] WGA SPA beads were suspended in assay buffer at 20 mg/ml. The suspension was diluted to 10 mg/ml in assay buffer just prior to addition to the assay plate. Fifty μl were added to each well in the assay plate. […] A 25 μl aliquot was reserved for measuring total counts/well. […] The assay plate was incubated for 2 h at 30° C. […] The assay plate was centrifuged for 10 min. […] The assay plate was read in a Packard TopCount NXT instrument.

human GLP-1 receptor [6] = target: T2, human GLP-1 receptor; assay: displacement of [125I]-GLP-1-(7-36)NH2 from membranes with human GLP-1 receptor, SPA, low HSA (0.001%)
Experimental: as §1, §2

[7] = 0% HSA, read-out: EC50/pM (0% HSA)
[8] = EC50/pM (1% HSA), 1% HSA final assay concentration

| Molecule | EC50 (human GLP-1 receptor [1]; [7]) [pM] | EC50 (human GLP-1 receptor [1]; [8]) [pM] | IC50 (human GLP-1 receptor [2]; read-out: IC50/nM (low HSA)) [nM] | half-life [3] [h] | EC50 (human GLP-1 receptor [1]; EC50/pM (0% HSA), 0% HSA) [pM] | IC50 (human GLP-1 receptor [2]; IC50/nM (low HSA)) [nM] | EC50/pM (0% HSA) (human GLP-1 receptor [4]) [pM] | EC50/pM (1% HSA) (human GLP-1 receptor [4]) [pM] | IC50 (human GLP-1 receptor [5]) [nM] | IC50 (human GLP-1 receptor [6]) [nM] |
| --- | --- | --- | --- | --- | --- | --- | --- | --- | --- | --- |
| CC[C@H](C)[C@H](NC(=O)[C@H](Cc1ccccc1)NC(=O)[C@H](CCC(=O)O)NC(=O)[C@H](CCCNC(=N)N)NC(=O)[C@H](C)NC(=O)[C@H](C)NC(=O)[C@H](CCC(N)=O)NC(=O)[C@H](CCC(=O)O)NC(=O)[C@H](CCC(=O)O)NC(=O)[C@H](CC(C)C)NC(=O)[C@H](Cc1ccc(O)cc1)NC(=O)[C@H](CO)NC(=O)[C@H](CO)NC(=O)[C@@H](NC(=O)[C@H](CC(=O)O)NC(=O)[C@H](CO)NC(=O)[C@@H](NC(=O)[C@H](Cc1ccccc1)NC(=O)[C@@H](NC(=O)CNC(=O)[C@H](CCC(=O)O)NC(=O)C(C)(C)NC(=O)[C@@H](N)Cc1c[nH]cn1)[C@@H](C)O)[C@@H](C)O)C(C)C)C(=O)N[C@@H](C)C(=O)N[C@@H](Cc1c[nH]c2ccccc12)C(=O)N[C@@H](CC(C)C)C(=O)N[C@H](C(=O)N[C@@H](CCCNC(=N)N)C(=O)NCC(=O)N[C@@H](CCCCNC(=O)COCCOCCNC(=O)COCCOCCNC(=O)CC[C@H](NC(=O)CCCCCCCCCCCCC(=O)O)C(=O)O)C(=O)N[C@@H](CCCCNC(=O)COCCOCCNC(=O)COCCOCCNC(=O)CC[C@H](NC(=O)CCCCCCCCCCCCC(=O)O)C(=O)O)C(=O)O)C(C)C [Example 5, N{Epsilon-36}-[2-[2-[2-[[2-[2-[2-[[(4S)-4-carboxy-4-(13-carboxytridecanoylamino)butanoyl]amino]ethoxy]ethoxy]acetyl]amino]ethoxy]ethoxy]acetyl], N{Epsilon-37}-[2-[2-[2-[[2-[2-[2-[[(4S)-4-carboxy-4-(13-carboxytridecanoylamino)butanoyl]amino]ethoxy]ethoxy]acetyl]amino]ethoxy]ethoxy]acetyl]-[Aib8,Glu22,Arg26,Arg34,Lys36,Lys37]-GLP-1-(7-37)-peptide] | 1.1 | 22 | 0.2 | 99 | – | – | – | – | – | – |
| CC[C@H](C)[C@H](NC(=O)[C@H](Cc1ccccc1)NC(=O)[C@H](CCC(=O)O)NC(=O)[C@H](CCCNC(=N)N)NC(=O)[C@H](C)NC(=O)[C@H](C)NC(=O)[C@H](CCC(N)=O)NC(=O)[C@H](CCC(=O)O)NC(=O)[C@H](CCC(=O)O)NC(=O)[C@H](CC(C)C)NC(=O)[C@H](Cc1ccc(O)cc1)NC(=O)[C@H](CO)NC(=O)[C@H](CO)NC(=O)[C@@H](NC(=O)[C@H](CC(=O)O)NC(=O)[C@H](CO)NC(=O)[C@@H](NC(=O)[C@H](Cc1ccccc1)NC(=O)[C@@H](NC(=O)CNC(=O)[C@H](CCC(=O)O)NC(=O)C(C)(C)NC(=O)[C@@H](N)Cc1c[nH]cn1)[C@@H](C)O)[C@@H](C)O)C(C)C)C(=O)N[C@@H](C)C(=O)N[C@@H](Cc1c[nH]c2ccccc12)C(=O)N[C@@H](CC(C)C)C(=O)N[C@H](C(=O)N[C@@H](CCCNC(=N)N)C(=O)NCC(=O)N[C@@H](CCCCNC(=O)COCCOCCNC(=O)COCCOCCNC(=O)CC[C@H](NC(=O)CCCCCCCCCOc1ccc(C(=O)O)cc1)C(=O)O)C(=O)N[C@@H](CCCCNC(=O)COCCOCCNC(=O)COCCOCCNC(=O)CC[C@H](NC(=O)CCCCCCCCCOc1ccc(C(=O)O)cc1)C(=O)O)C(=O)O)C(C)C [Example 3, N{Epsilon-36}-[2-[2-[2-[[2-[2-[2-[[(4S)-4-carboxy-4-[10-(4-carboxyphenoxy)decanoylamino]butanoyl]amino]ethoxy]ethoxy]acetyl]amino]ethoxy]ethoxy]acetyl], N{Epsilon-37}-[2-[2-[2-[[2-[2-[2-[[(4S)-4-carboxy-4-[10-(4-carboxyphenoxy)decanoylamino]butanoyl]amino]ethoxy]ethoxy]acetyl]amino]ethoxy]ethoxy]acetyl]-[Aib8,Glu22,Arg26,Arg34,Lys36,Lys37]-GLP-1-(7-37)-peptide] | – | 28 | – | 71 | 1.2 | 0.19 | – | – | – | – |
| CC[C@H](C)[C@H](NC(=O)[C@H](Cc1ccccc1)NC(=O)[C@H](CCC(=O)O)NC(=O)[C@H](CCCNC(=N)N)NC(=O)[C@H](C)NC(=O)[C@H](C)NC(=O)[C@H](CCC(N)=O)NC(=O)[C@H](CCC(=O)O)NC(=O)[C@H](CCC(=O)O)NC(=O)[C@H](CC(C)C)NC(=O)[C@H](Cc1ccc(O)cc1)NC(=O)[C@H](CO)NC(=O)[C@H](CO)NC(=O)[C@@H](NC(=O)[C@H](CC(=O)O)NC(=O)[C@H](CO)NC(=O)[C@@H](NC(=O)[C@H](Cc1ccccc1)NC(=O)[C@@H](NC(=O)CNC(=O)[C@H](CCC(=O)O)NC(=O)C(C)(C)NC(=O)[C@@H](N)Cc1c[nH]cn1)[C@@H](C)O)[C@@H](C)O)C(C)C)C(=O)N[C@@H](C)C(=O)N[C@@H](Cc1c[nH]c2ccccc12)C(=O)N[C@@H](CC(C)C)C(=O)N[C@H](C(=O)N[C@@H](CCCNC(=N)N)C(=O)NCC(=O)N[C@@H](CCCCNC(=O)COCCOCCNC(=O)CC[C@H](NC(=O)CC[C@H](NC(=O)CCCCCCCCCCCCC(=O)O)C(=O)O)C(=O)O)C(=O)N[C@@H](CCCCNC(=O)COCCOCCNC(=O)CC[C@H](NC(=O)CC[C@H](NC(=O)CCCCCCCCCCCCC(=O)O)C(=O)O)C(=O)O)C(=O)O)C(C)C [Example 13, N{Epsilon-36}-[2-[2-[2-[[(4S)-4-carboxy-4-[[(4S)-4-carboxy-4-(13-carboxytridecanoylamino)butanoyl]amino]butanoyl]amino]ethoxy]ethoxy]acetyl], N{Epsilon-37}-[2-[2-[2-[[(4S)-4-carboxy-4-[[(4S)-4-carboxy-4-(13-carboxytridecanoylamino)butanoyl]amino]butanoyl]amino]ethoxy]ethoxy]acetyl]-[Aib8,Glu22,Arg26,Arg34,Lys36,Lys37]-GLP-1-(7-37)-peptide] | 1.3 | 18 | 0.47 | 98 | – | – | – | – | – | – |
| CC[C@H](C)[C@H](NC(=O)[C@H](Cc1ccccc1)NC(=O)[C@H](CCC(=O)O)NC(=O)[C@H](CCCNC(=N)N)NC(=O)[C@H](C)NC(=O)[C@H](C)NC(=O)[C@H](CCC(N)=O)NC(=O)[C@H](CCC(=O)O)NC(=O)[C@H](CCC(=O)O)NC(=O)[C@H](CC(C)C)NC(=O)[C@H](Cc1ccc(O)cc1)NC(=O)[C@H](CO)NC(=O)[C@H](CO)NC(=O)[C@@H](NC(=O)[C@H](CC(=O)O)NC(=O)[C@H](CO)NC(=O)[C@@H](NC(=O)[C@H](Cc1ccccc1)NC(=O)[C@@H](NC(=O)CNC(=O)[C@H](CCC(=O)O)NC(=O)C(C)(C)NC(=O)[C@@H](N)Cc1c[nH]cn1)[C@@H](C)O)[C@@H](C)O)C(C)C)C(=O)N[C@@H](C)C(=O)N[C@@H](Cc1c[nH]c2ccccc12)C(=O)N[C@@H](CC(C)C)C(=O)N[C@H](C(=O)N[C@@H](CCCNC(=N)N)C(=O)NCC(=O)N[C@@H](CCCCNC(=O)COCCOCCNC(=O)COCCOCCNC(=O)COCCOCCNC(=O)CC[C@H](NC(=O)CCCCCCCCCCCCC(=O)O)C(=O)O)C(=O)N[C@@H](CCCCNC(=O)COCCOCCNC(=O)COCCOCCNC(=O)COCCOCCNC(=O)CC[C@H](NC(=O)CCCCCCCCCCCCC(=O)O)C(=O)O)C(=O)O)C(C)C [Example 12] | 1.2 | 10 | 0.2 | 80 | – | – | – | – | – | – |
| H[Aib]EGTFTSDVSSYLEEQAAREFIEWLVRGK([AEEA-AEEA-γGlu-Decanoyl(10-O(3-COOH-Ph))])K([AEEA-AEEA-γGlu-Decanoyl(10-O(3-COOH-Ph))]) [GLP-1 derivative of Example 27] | – | – | – | – | – | – | 13 | 105 | 478 | 0.66 |
| H[Aib]EGTFTSDVSSYLEEQAAREFIAWLVRGK([AEEA-AEEA-γGlu-Decanoyl(10-O(3-COOH-Ph))])K([AEEA-AEEA-γGlu-Decanoyl(10-O(3-COOH-Ph))]) [GLP-1 derivative of Example 15] | – | – | – | – | – | – | 6.1 | 44 | 126 | 0.38 |
| H[Aib]EGTFTSDVSSYLEEQAAREFIAWLVRGKK (not fully specified (residues 30, 31)) [GLP-1 derivative of Example 1] | – | – | – | – | – | – | 1.2 | 136 | 135 | 0.21 |
| H[Aib]EGTFTSDVSSYLEEQAAREFIAWLVRGK([AEEA-AEEA-γGlu-γGlu-C14 diacid])K([AEEA-AEEA-γGlu-γGlu-C14 diacid]) [GLP-1 derivative of Example 21] | – | – | – | – | – | – | 5.6 | 13 | 89 | 0.42 |
| HGEGTFTSDVSSYLEEQAAREFIAWLVRGK([AEEA-AEEA-γGlu-Undecanoyl(11-OPh(4-COOH))])K([AEEA-AEEA-γGlu-Undecanoyl(11-OPh(4-COOH))]) [GLP-1 derivative of Example 17] | – | – | – | – | – | – | 14 | 199 | 536 | 0.9 |
| H[Aib]EGTFTSDVSSYLEEQAAREFIAWLVRGK([AEEA-AEEA-AEEA-AEEA-γGlu-C14 diacid])K([AEEA-AEEA-AEEA-AEEA-γGlu-C14 diacid]) [GLP-1 derivative of Example 20] | – | – | – | – | – | – | 2.7 | 5.8 | – | 0.81 |

Reference: patent publication US10689429B2, “Double-acylated GLP-1 compounds” (Novo Nordisk A/S, priority 2014, dated 2020)
